Laboratory results from the supplement of paper PMC12855868.

B1: library; numbered along this chain (parent)
chain: MAAAGGARLLRAASAVLGGPAGRWLHHAGSRAGSSGLLRNRGPGGSAEASRSLSVSARARSSSEDKITVHFINRDGETLTTKGKVGDSLLDVVVENNLDIDGFGACEGTLACSTCHLIFEDHIYEKLDAITDEENDMLDLAYGLTDRSRLGCQICLTKSMDNMTVRVPETVADARQSIDVGKTS

Variants of: B1
Assay: scaled log2 fold change in cell abundance, elesclomol vs control (0 = silent mean, 1 = nonsense mean) (scaled log2 ratio); higher = higher viability under elesclomol (loss of FDX1 cuproptosis function)
Details: glucose 10 mM
[1] = with ABC1 FDX1 KO, elesclomol 5 nM, 14 days
[2] = with HEK293T FDX1 KO, elesclomol 40 nM, 11 days
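Further: variant abundance is its share of total variant reads in each endpoint sample, from next-generation sequencing of the integrated ORF PCR-amplified out of genomic DNA.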

Variant	scaled log2 fold change [1]	scaled log2 fold change [2]
MAAAGGARLLRAASAVLGGPAGRWLHHAGSRAGSSGLLRNRGPGGSAEASRSLSVSARARSSSEDKITVHFINRDGETLTTKGKVGDSLLDVVVENNLDIDGFGACEGTLACSTCHLIFEDHIYEKLDAITDEENDMLCLAYGLTDRSRLGCQICLTKSMDNMTVRVPETVADARQSIDVGKTS [D139C]	-0.416	-0.576
MAAAGGARLLRAASAVLGGPAGRWLHHAGSRAGSSGLLRNRGPGGSAEASRSLSVSARARSSSEDKITVHFINRDGETLTTKGKVGDSLLDVVVENNLDIDGFGACEGTLACSTCHLIFEDHIYEKLDAITDEENDMLALAYGLTDRSRLGCQICLTKSMDNMTVRVPETVADARQSIDVGKTS [D139A]	0.113	-0.357
MAAAGGARLLRAASAVLGGPAGRWLHHAGSRAGSSGLLRNRGPGGSAEASRSLSVSARARSSSEDKITVHFINRDGETLTTKGKVGDSLLDVVVENNLDIDGFGACEGTLACSTCHLIFEDHIYEKLDAITDEENDMLELAYGLTDRSRLGCQICLTKSMDNMTVRVPETVADARQSIDVGKTS [D139E]	0.147	0.513
MAAAGGARLLRAASAVLGGPAGRWLHHAGSRAGSSGLLRNRGPGGSAEASRSLSVSARARSSSEDKITVHFINRDGETLTTKGKVGDSLLDVVVENNLDIDGFGACEGTLACSTCHLIFEDHIYEKLDAITDEENDMLGLAYGLTDRSRLGCQICLTKSMDNMTVRVPETVADARQSIDVGKTS [D139G]	-0.228	-0.268
MAAAGGARLLRAASAVLGGPAGRWLHHAGSRAGSSGLLRNRGPGGSAEASRSLSVSARARSSSEDKITVHFINRDGETLTTKGKVGDSLLDVVVENNLDIDGFGACEGTLACSTCHLIFEDHIYEKLDAITDEENDMLFLAYGLTDRSRLGCQICLTKSMDNMTVRVPETVADARQSIDVGKTS [D139F]	0.257	0.819
MAAAGGARLLRAASAVLGGPAGRWLHHAGSRAGSSGLLRNRGPGGSAEASRSLSVSARARSSSEDKITVHFINRDGETLTTKGKVGDSLLDVVVENNLDIDGFGACEGTLACSTCHLIFEDHIYEKLDAITDEENDMYDLAYGLTDRSRLGCQICLTKSMDNMTVRVPETVADARQSIDVGKTS [L138Y]	0.578	-0.246
MAAAGGARLLRAASAVLGGPAGRWLHHAGSRAGSSGLLRNRGPGGSAEASRSLSVSARARSSSEDKITVHFINRDGETLTTKGKVGDSLLDVVVENNLDIDGFGACEGTLACSTCHLIFEDHIYEKLDAITDEENDMWDLAYGLTDRSRLGCQICLTKSMDNMTVRVPETVADARQSIDVGKTS [L138W]	0.885	0.749
MAAAGGARLLRAASAVLGGPAGRWLHHAGSRAGSSGLLRNRGPGGSAEASRSLSVSARARSSSEDKITVHFINRDGETLTTKGKVGDSLLDVVVENNLDIDGFGACEGTLACSTCHLIFEDHIYEKLDAITDEENDMVDLAYGLTDRSRLGCQICLTKSMDNMTVRVPETVADARQSIDVGKTS [L138V]	-0.213	-0.414
